Assay results from the supplement of paper PMC10567573.

B1: ZNF24 (parent)
chain: THTKEQILELVVLEQFVAILPKEL

Variants of: B1
Assay: protein stability index of a GFP-peptide fusion (GPS, HEK-293T) (PSI 1-6); higher = more stable
Conditions: c terminus: a fixed tail appended
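Further: lentivirally expressed fusions sorted by FACS into six bins by GFP to DsRed ratio, PSI derived from sequencing read proportions per bin multiplied by bin number.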

Variant | protein stability index
THTKEQILELVALEQFVAILPKEL [V12A] | 1.83
THTKEQILELMVLEQFVAILPKEL [V11M] | 2.6
THTKEQILELYVLEQFVAILPKEL [V11Y] | 1.91
THTKEQILELRVLEQFVAILPKEL [V11R] | 1.76
THTKEQILELLVLEQFVAILPKEL [V11L] | 2.43
THTKEQILELHVLEQFVAILPKEL [V11H] | 2.18
THTKEQILELTVLEQFVAILPKEL [V11T] | 2
THTKEQILELIVLEQFVAILPKEL [V11I] | 3.03
THTKEQILELCVLEQFVAILPKEL [V11C] | 2.51
THTKEQILELPVLEQFVAILPKEL [V11P] | 2.67
THTKEQILELNVLEQFVAILPKEL [V11N] | 2.15
THTKEQILELQVLEQFVAILPKEL [V11Q] | 2.05
THTKEQILELSVLEQFVAILPKEL [V11S] | 2.03
THTKEQILELDVLEQFVAILPKEL [V11D] | 2.36
THTKEQILELKVLEQFVAILPKEL [V11K] | 1.47
THTKEQILELFVLEQFVAILPKEL [V11F] | 3.28
THTKEQILELAVLEQFVAILPKEL [V11A] | 2.1
THTKEQILELWVLEQFVAILPKEL [V11W] | 3.42
THTKEQILELEVLEQFVAILPKEL [V11E] | 1.86
THTKEQILELGVLEQFVAILPKEL [V11G] | 2.05
THTKEQQLELVVLEQFVAILPKEL [I7Q] | 1.89
THTKEQSLELVVLEQFVAILPKEL [I7S] | 2.04
THTKEQELELVVLEQFVAILPKEL [I7E] | 2.55
THTKEQTLELVVLEQFVAILPKEL [I7T] | 2.11

Variant | protein stability index
THTKEQPLELVVLEQFVAILPKEL [I7P] | 2.48
THTKEQDLELVVLEQFVAILPKEL [I7D] | 2.35
THTKEQVLELVVLEQFVAILPKEL [I7V] | 1.29
THTKEQALELVVLEQFVAILPKEL [I7A] | 1.74
THTKEQWLELVVLEQFVAILPKEL [I7W] | 2.51
THTKEQLLELVVLEQFVAILPKEL [I7L] | 2.16
THTKEQRLELVVLEQFVAILPKEL [I7R] | 1.9
THTKEQHLELVVLEQFVAILPKEL [I7H] | 2.04
THTKEQFLELVVLEQFVAILPKEL [I7F] | 2.54
THTKEQYLELVVLEQFVAILPKEL [I7Y] | 3.29
THTKEQKLELVVLEQFVAILPKEL [I7K] | 1.56
THTKEQGLELVVLEQFVAILPKEL [I7G] | 1.76
THTKEQMLELVVLEQFVAILPKEL [I7M] | 3.04
THTKEQNLELVVLEQFVAILPKEL [I7N] | 1.65
THTKEQCLELVVLEQFVAILPKEL [I7C] | 1.59
THTKEQILEGVVLEQFVAILPKEL [L10G] | 1.7
THTKEQILEPVVLEQFVAILPKEL [L10P] | 2.09
THTKEQILEDVVLEQFVAILPKEL [L10D] | 2.69
THTKEQILEHVVLEQFVAILPKEL [L10H] | 1.65
THTKEQILEFVVLEQFVAILPKEL [L10F] | 2.35
THTKEQILEAVVLEQFVAILPKEL [L10A] | 2.28
THTKEQILEYVVLEQFVAILPKEL [L10Y] | 2.69
THTKEQILERVVLEQFVAILPKEL [L10R] | 1.72
THTKEQILENVVLEQFVAILPKEL [L10N] | 2.23

Variant | protein stability index
THTKEQILEEVVLEQFVAILPKEL [L10E] | 2.12
THTKEQILECVVLEQFVAILPKEL [L10C] | 2.42
THTKEQILEIVVLEQFVAILPKEL [L10I] | 2.02
THTKEQILESVVLEQFVAILPKEL [L10S] | 1.72
THTKEQILETVVLEQFVAILPKEL [L10T] | 2.03
THTKEQILEMVVLEQFVAILPKEL [L10M] | 2.69
THTKEQILEKVVLEQFVAILPKEL [L10K] | 2.04
THTKEQILEQVVLEQFVAILPKEL [L10Q] | 2.26
THTKEQILEVVVLEQFVAILPKEL [L10V] | 2.5
THTKEQIMELVVLEQFVAILPKEL [L8M] | 2.41
THTKEQIGELVVLEQFVAILPKEL [L8G] | 1.62
THTKEQIQELVVLEQFVAILPKEL [L8Q] | 1.95
THTKEQIPELVVLEQFVAILPKEL [L8P] | 2.16
THTKEQITELVVLEQFVAILPKEL [L8T] | 1.75
THTKEQIVELVVLEQFVAILPKEL [L8V] | 2.4
THTKEQIWELVVLEQFVAILPKEL [L8W] | 3.68
THTKEQIAELVVLEQFVAILPKEL [L8A] | 2.28
THTKEQIDELVVLEQFVAILPKEL [L8D] | 2.52
THTKEQISELVVLEQFVAILPKEL [L8S] | 1.57
THTKEQIEELVVLEQFVAILPKEL [L8E] | 2.32
THTKEQIKELVVLEQFVAILPKEL [L8K] | 1.84
THTKEQIIELVVLEQFVAILPKEL [L8I] | 2.79
THTKEQICELVVLEQFVAILPKEL [L8C] | 2.75
THTKEQIHELVVLEQFVAILPKEL [L8H] | 2.1

Variant | protein stability index
THTKEQINELVVLEQFVAILPKEL [L8N] | 1.57
THTKEQIRELVVLEQFVAILPKEL [L8R] | 1.85
THTKEQIYELVVLEQFVAILPKEL [L8Y] | 2.66
THTKEQIFELVVLEQFVAILPKEL [L8F] | 3.62
THTKEQILRLVVLEQFVAILPKEL [E9R] | 2.49
THTKEQILGLVVLEQFVAILPKEL [E9G] | 2.85
THTKEQILMLVVLEQFVAILPKEL [E9M] | 2.04
THTKEQILLLVVLEQFVAILPKEL [E9L] | 2.62
THTKEQILHLVVLEQFVAILPKEL [E9H] | 3.25
THTKEQILALVVLEQFVAILPKEL [E9A] | 3.22
THTKEQILWLVVLEQFVAILPKEL [E9W] | 2.87
THTKEQILYLVVLEQFVAILPKEL [E9Y] | 3.52
THTKEQILVLVVLEQFVAILPKEL [E9V] | 3.25
THTKEQILCLVVLEQFVAILPKEL [E9C] | 1.64
THTKEQILDLVVLEQFVAILPKEL [E9D] | 2.28
THTKEQILFLVVLEQFVAILPKEL [E9F] | 2.82
THTKEQILNLVVLEQFVAILPKEL [E9N] | 2.82
THTKEQILQLVVLEQFVAILPKEL [E9Q] | 2.69
THTKEQILTLVVLEQFVAILPKEL [E9T] | 2.29
THTKEQILKLVVLEQFVAILPKEL [E9K] | 2.77
THTKEQILSLVVLEQFVAILPKEL [E9S] | 3.48
THTKEQILPLVVLEQFVAILPKEL [E9P] | 2.93
